Laboratory results: PMC5834517

What was measured:
[1] = target: WT FcγRIIIa (glycosylated, expressed by HEK293 cells) (UniProt P08637)
[2] = target: Mut FcγRIIIa (engineered, non-glycosylated Fcγ receptor IIIa) (UniProt P08637); test: SPR; van't Hoff analysis: temperature dependence of KD; Mut FcγRIIIa on the surface, antibody fractions as analyte
[3] = target: Mut FcγRIIIa (non-glycosylated); test: SPR; Biacore T200; FcγRIIIa (WT or Mut) captured on a Ni2+-loaded NTA sensor chip at 350 RU; Rituximab fractions injected as analyte at 30 μL/min; PBS with 0.005% Tween-20; global fit, 1:1 Langmuir model; KD = koff/kon

Row | Substance | EC50 of FcγRIIIa activation (NFAT-driven luciferase in Jurkat/FcγRIIIa/NFAT-Luc cells with Daudi cells; corresponds to ADCC) [1] [µg/mL] | dH [2] [kcal/mol] | Kd [3] [nM]
1 | Rituximab fraction Peak 2 of the FcγRIIIa column (antibody) | 0.19 | -13.3 | –
2 | Rituximab, peak 1 of the FcγRIIIa-immobilized column (antibody) | – | – | 1490
3 | Rituximab fraction Peak 3 of the FcγRIIIa column (antibody) | 0.05 | -13.1 | –
4 | Rituximab fraction Peak 1 of the FcγRIIIa column (antibody) | 0.2 | -13.3 | –
5 | Rituximab, peak 2 of the FcγRIIIa-immobilized column (antibody) | – | – | 1010
6 | Rituximab, peak 3 of the FcγRIIIa-immobilized column (antibody) | – | – | 701
7 | Rituximab (Roche), before separation (antibody) | 0.13 | – | –
